Laboratory results as given in paper PMC7495468.

Molecular target: HKU1-A HE ectodomain (human coronavirus HKU1 haemagglutinin-esterase, type A) (human coronavirus HKU1 (type A))
Experiment: […] (4 mg/ml; SEC buffer 10 mM Tris-HCl pH 8, 50 mM NaCl), […]

“HKU1-A HE ectodomain (human coronavirus HKU1 haemagglutinin-esterase, type A) (domain or fragment)” showed a stoichiometry N of 2.
